Where “and” joins values, the source holds several entries; their conditions need not be identical. Equal values may be shown once.
What was measured:
[1] = Constant-force (CF) single-molecule optical tweezers folding assay of guanine-aptamer RNAs in guanine buffer; assay type: physicochemical; conditions: for F^eq / k^eq: [G] = 200 nM; for Observed nucleotides / Observed ΔXobs: CF; for k^eq: at F^eq
Description: The aptamer folding was monitored in real time using a constant-force (CF) assay. Equilibrium sampling techniques provide unprecedented insights into the rare events in the course of folding that are otherwise difficult to identify. The technique also allows for determination of the kinetic rates that has not been fully investigated in the guanine riboswitch. The relative dynamics of the helices have been investigated in ensemble and smFRET experiments, which indicated a non-dynamic P1-P3, upon which the P2 helix switches conformations. As shown in FIG. 6A (left panel), the RNA oscillated between the linear and the hairpin conformations (E↔D↔C) at 13 pN. The distances ΔXED=7.1±0.4 nm and ΔXDC=7.9±0.4 nm correspond to the folding of a 17±1 nt (P2) and 19±1 nt (P3) respectively (FIGS. 7A-B). The conversion of distances to nucleotides in CF assay are described in Table 2.
A miniaturized dual beam optical tweezers instrument was constructed with a sampling rate of 0.4, 4 and 40 kHz. Typically, in the tweezers set up (FIGS. 2A-E), a single-molecule of RNA is held between two beads via ˜550 nucleotide (nt) long Handles A and B. Preparation of Handles and the RNA is described in the section above. The streptavidin coated polystyrene bead (diameter 1.5-1.9 μm, Spherotech Inc.) is fixed on a micropipette via suction, and the anti-digoxigenin coated bead (diameter 4.0-4.9 μm, Spherotech Inc.) is held in the dual counter-propagating laser beam. The trap stiffness, K is measured at 0.04-0.06 pN/nm from the power spectrum analysis of the Brownian motion of the trapped bead. For power spectrum analysis, a polystyrene bead with diameter ˜4.6 μm is trapped in the counter-propagating laser beam in aqueous buffer with a fixed trap position. […] The average from 10 beads yielded K˜0.049±0.0008 pN/nm, and the stoke's drag coefficient, y=0.0364±0.0002 pN. s/μm. […] However, the autocorrelation time (τ0) defined as the τ1=1/2πfc as described by Zoldak et al., “Ultrafast folding kinetics and cooperativity of villin headpiece in single-molecule force spectroscopy”. Proc. Natl. Acad. Sci. U.S.A 110, 18156 (2013) sets the detection limit for the observable kinetics, which is different from the sampling frequencies. […] The ACF for the time series of force signal, Fi, with sampling rate δ and N data points, is calculated as,
In a constant-force (CF) experiment, the RNA is held at a preset force through feedback control. The preset force typically fluctuated around the mean with a standard deviation ±0.15 pN. In this mode, data is recorded from 4-40 kHz to capture the fast intermediates. The plots are shown as extension vs. time (as in FIG. 6A). In force-jump (FJ) assay, the force is suddenly jumped from one force to another, and then held constant thereafter, as shown in FIGS. 23A-B.
All FR, CF and FJ experiments were carried out at an ambient temperature, 25±0.5° C. The buffer in the microfluidics contained 10 mM Tris-HCl, pH 7.5 at 25° C., 250 mM NaCl, 3 mM MgCl2, and purine concentrations as indicated in wild-type aptamer. Unless stated otherwise, Mg^2+ concentration in the buffer was maintained at 3 mM in all experiments. The buffer in mutant m1 contained 5 mm Mg^2+ and 1 μM G, and in m3 contained 5 mM Mg^2+ and 200 nM Guanine. For the remaining m2, m4, m5 and m6 mutants, the buffer in single-molecule experiments was supplemented only with 3 mM Mg^2+ and 200 nM Guanine.
In the force-ramp experiment, the trap was moved away (pull cycle) from the micropipette at 200 nm/sec, which corresponded to a loading rate of 7-8 pN/sec. This movement of the trap exerted a tension at the ends of the tethered RNA aptamer. […] In the constant-force (CF) experiment, the RNA was held at a preset force (FIG. 6A). The loading rate in CF experiments was zero. The preset force typically fluctuated around the mean with standard deviation ±0.15 pN. […]

[2] = Isothermal titration calorimetry (ITC); assay type: binding
Protocol: For ITC experiments, wild-type G-aptamer and the mutant RNAs were synthesized by in vitro transcription of the DNA template and purified by denaturing polyacrylamide gel electrophoresis (PAGE). The ligand guanine was introduced in the syringe, while the RNA into the sample cell at a final concentration of 10 μM and 1 μM respectively. The concentrations were determined by absorbance reading using ε260=12010 M^−1 cm^−1 (guanine) and ε260=711400 M^−1 cm^−1 (RNA). The buffer in the syringe and the sample cell contained 50 mM K^+ Hepes (pH 7.5), 100 mM KCl, and 10 mM MgCl2. Binding reactions were performed at 30° C. on a MicroCal iTC200 instrument (Malvern) with a reference power of 6 μcal/sec, an initial delay of 60 secs and a stirring speed of 750 rpm. Guanine was titrated into the sample cell in 16 injections (2.5 μl each). The injection rate was 0.5 μl/sec and the spacing between the injections was maintained at 120 sec. Data was baseline corrected and fitted to a single-site binding model to obtain association constant (KA), stoichiometry (n) and binding enthalpy, ΔH. The dissociation constant (KD) and the binding free energy, ΔG was obtained from the fitted parameters using the following relations. All data analysis was performed using the Origin ITC software.
The ITC results are reported as mean±standard deviation from three independent experiments.

[3] = transition BA (P1 folding), F 8.5 pN, 3 mM Mg^2+, 200 nM G
[4] = transition CB (J2/3 folding), F 13 pN, 3 mM Mg^2+, 200 nM G
[5] = transition C′B (L2-L3 folding), F 8.5 pN, 3 mM Mg^2+, 200 nM G
[6] = transition DC (P3 folding), F 13 pN, 3 mM Mg^2+, 200 nM G
[7] = transition ED (P2 folding), F 13 pN, 3 mM Mg^2+, 200 nM G
[8] = transition C′A (merged C′B and BA), F 6.1 pN, 5 mM Mg^2+, 1 uM G
[9] = transition DC (P3 folding), F 12.0 pN, 5 mM Mg^2+, 1 uM G
[10] = transition ED (P2 folding), F 13.5 pN, 5 mM Mg^2+, 1 uM G

B1: wt: 69-nucleotide full-length wild-type guanine sensing aptamer RNA sequence from xpt-pbuX operon in B. subtilis (SEQ ID NO: 1) (nucleic acid)
chain: CACUCAUAUAAUCGCGUGGAUAUGGCACGCAAGUUUCUACCGGGCACCGUAAAUGUCCGACUAUGGGUG
modifications: RNA, backbone and methylation of C not given here
F^eq ([1]; Closed J2/3 (CB)): ~13 pN
Time to form the native receptor structure after guanine binding ([1]; FIG. 22): ~8 μsec
Observed nucleotides ([1]; J2/3 (CB), 13 pN): 8.4 ± 0.2
Observed ΔXobs ([1]; J2/3 (CB), 13 pN): 3.5 ± 0.1 (CF) nm
Observed ΔXobs ([1]; L2-L3 (C′B), 8.5 pN): 3.4 ± 0.1 (CF) nm
F^eq ([1]; L2-L3 (C′B)): 8.72 ± 0.11 pN
k^eq ([1]; L2-L3 (C′B)): 0.82 ± 0.06 s⁻¹
F^eq ([1]; P1 (BA)): 8.21 ± 0.11 pN
k^eq ([1]; P1 (BA)): 0.55 ± 0.09 s⁻¹
Observed nucleotides ([1]; P1+ junctions (BA), 8.5 pN): 21.7 ± 0.5
Observed ΔXobs ([1]; P1+ junctions (BA), 8.5 pN, 2 nm helix width subtracted): 8.0 ± 0.2 (CF) nm
F^eq ([1]; P2 (ED)): 13.49 ± 0.03 pN
k^eq ([1]; P2 (ED)): 13.20 ± 0.20 s⁻¹
Observed nucleotides ([1]; P2 hairpin (ED), 13 pN): 17±1
Observed ΔXobs ([1]; P2 hairpin (ED), 13 pN): 7.1 ± 0.4 (CF) nm
F^eq ([1]; P3 (DC)): 12.19 ± 0.02 pN
k^eq ([1]; P3 (DC)): 16.80 ± 0.30 s⁻¹
Observed nucleotides ([1]; P3 hairpin (DC), 13 pN): 19±1 and 18.9 ± 1
Observed ΔXobs ([1]; P3 hairpin (DC), 13 pN): 7.9 ± 0.4 (CF) nm
Barrier ΔGP1^‡ before folding of the P1-stem ([1]; free energy landscape transformed to zero force): ~6 kBT
F^eq for P2-P3 ([1]; guanine-aptamer): ~13 pN
Rates for the two hairpins P2 and P3 ([1]; range over Table 1): 8.5 to 32.3 s⁻¹
Equilibrium force F^eq ([1]; transition BA (P1 folding), 3 mM Mg^2+, 200 nM G (rates at 8.5 pN)): 8.2 ± 0.1 pN
Folding rate kf [1, 3]: 0.4 ± 0.03 s⁻¹
Unfolding rate ku [1, 3]: 0.7 ± 0.09 s⁻¹
Transition distance ΔX ([1]; transition BA (P1 folding), F 8.5 pN, 3 mM Mg^2+, 200 nM G, no helix width adjustment): 9.9 ± 0.2 nm
ΔG (0) ([1]; transition BA (P1 folding), zero force, from data at 8.5 pN, 3 mM Mg^2+, 200 nM G): −13.9 ± 0.4 kBT
ΔG (0) ([1]; transition BA (P1 folding), zero force, from data at 8.5 pN, 3 mM Mg^2+, 200 nM G, listed as wild-type): −13.9 kBT
Transition distance ΔX [1, 4]: 3.5 ± 0.1 nm
Unfolding rate ku [1, 4]: 2.6 ± 0.5 s⁻¹
ΔG (0) ([1]; transition CB (J2/3 folding), zero force, ΔG(0) = −F·ΔX + ΔGstretch, 3 mM Mg^2+, 200 nM G): −7.2 ± 0.3 kBT
Equilibrium force F^eq ([1]; transition C′B (L2-L3 folding), 3 mM Mg^2+, 200 nM G (rates at 8.5 pN)): 8.7 ± 0.1 pN
Folding rate kf [1, 5]: 0.9 ± 0.06 s⁻¹
Transition distance ΔX [1, 5]: 3.4 ± 0.1 nm
Unfolding rate ku [1, 5]: 0.8 ± 0.05 s⁻¹
ΔG (0) ([1]; transition C′B (L2-L3 folding), zero force, from data at 8.5 pN, 3 mM Mg^2+, 200 nM G): −7.1 ± 0.2 kBT
Equilibrium force F^eq ([1]; transition DC (P3 folding), 3 mM Mg^2+, 200 nM G (rates at 13 pN)): 12.2 ± 0.02 pN
Equilibrium force F^eq ([1]; transition DC (P3 folding), 3 mM Mg^2+, 200 nM G (rates at 13 pN), listed as wild-type): 12.2±0.02 pN
Folding rate kf [1, 6]: 8.5 ± 0.1 s⁻¹
Transition distance ΔX [1, 6]: 7.9±0.4 nm
Unfolding rate ku [1, 6]: 32.3 ± 0.5 s⁻¹
ΔG (0) ([1]; transition DC (P3 folding), zero force, from data at 13 pN, 3 mM Mg^2+, 200 nM G): −16.3 ± 0.3 kBT
ΔG (0) ([1]; transition DC (P3 folding), zero force, from data at 13 pN, 3 mM Mg^2+, 200 nM G, listed as wild-type): −16.3 kBT
Equilibrium force F^eq ([1]; transition ED (P2 folding), 3 mM Mg^2+, 200 nM G (rates at 13 pN)): 13.5 ± 0.03 pN
Equilibrium force F^eq ([1]; transition ED (P2 folding), 3 mM Mg^2+, 200 nM G (rates at 13 pN), listed as wild-type): 13.5±0.03 pN
Folding rate kf [1, 7]: 20.0 ± 0.4 s⁻¹
Transition distance ΔX [1, 7]: 7.1±0.4 nm
Unfolding rate ku [1, 7]: 8.9 ± 0.1 s⁻¹
ΔG (0) ([1]; transition ED (P2 folding), zero force, from data at 13 pN, 3 mM Mg^2+, 200 nM G): −16.7 ± 0.3 kBT
Net free energy change ΔΔGaptamer ([1]; zero force, guanine-bound receptor structure): −81 kT
ΔG of guanine binding ([2]; 30° C.): -11.63 ± 0.20 kcal/mol
ΔH of guanine binding ([2]; 30° C.): -63.7 ± 1.1 kcal/mol
Kd ([2]; 30° C., 50 mM K^+ Hepes pH 7.5, 100 mM KCl, 10 mM MgCl2, read-out: KD for guanine): 4.22 ± 0.6 nM

B2: m1: m1 mutant guanine sensing aptamer RNA (SEQ ID NO: 2); G37 replaced with adenine in the L2 loop (nucleic acid)
chain: CACUCAUAUAAUCGCGUGGAUAUAGCACGCAAGUUUCUACCGGGCACCGUAAAUGUCCGACUAUGGGUG
modifications: RNA, backbone and methylation of C not given here
notes: G37 replaced with adenine in the L2 loop
Equilibrium force F^eq ([1]; transition C′A (merged C′B and BA), 5 mM Mg^2+, 1 uM G (rates at 6.1 pN)): 6 pN and 6.0 ± 0.03 pN
Folding rate kf [1, 8]: 0.6 ± 0.05 s⁻¹
Transition distance ΔX [1, 8]: 12.4 ± 0.3 nm
Unfolding rate ku [1, 8]: 0.6 ± 0.05 s⁻¹
ΔG (0) ([1]; transition C′A (merged C′B and BA), zero force, from data at 6.1 pN, 5 mM Mg^2+, 1 uM G): −12.4 ± 0.5 kBT
Equilibrium force F^eq ([1]; transition DC (P3 folding), 5 mM Mg^2+, 1 uM G (rates at 12.0 pN)): 12.2 ± 0.01 pN
Folding rate kf [1, 9]: 20.7 ± 0.4 s⁻¹
Transition distance ΔX [1, 9]: 7.7 ± 0.3 nm
Unfolding rate ku [1, 9]: 15.2 ± 0.3 s⁻¹
ΔG (0) ([1]; transition DC (P3 folding), zero force, from data at 12.0 pN, 5 mM Mg^2+, 1 uM G): −15.9 ± 0.9 kBT
Equilibrium force F^eq ([1]; transition ED (P2 folding), 5 mM Mg^2+, 1 uM G (rates at 13.5 pN)): 13.4 ± 0.01 pN
Folding rate kf [1, 10]: 11.8 ± 0.3 s⁻¹
Transition distance ΔX [1, 10]: 7.2 ± 0.2 nm
Unfolding rate ku [1, 10]: 15.1 ± 0.3 s⁻¹
ΔG (0) ([1]; transition ED (P2 folding), zero force, from data at 13.5 pN, 5 mM Mg^2+, 1 uM G): −16.6 ± 0.7 kBT
KD off relative to wild-type [2]: 35 fold
ΔG of guanine binding ([2]; 30° C.): -9.52 ± 0.22 kcal/mol

Source: US11905559B2, “Materials and methods for controlling gene expression” (priority 2016, dated 2024)
